According to patent publication US20200362034A1:

Molecular target: human glucagon ligand peptide-1 receptor (GLP1R) (human) (UniProt P43220)
Assay: cell-based or functional assay

Chain of human glucagon ligand peptide-1 receptor (GLP1R) (human) (P43220 24-463): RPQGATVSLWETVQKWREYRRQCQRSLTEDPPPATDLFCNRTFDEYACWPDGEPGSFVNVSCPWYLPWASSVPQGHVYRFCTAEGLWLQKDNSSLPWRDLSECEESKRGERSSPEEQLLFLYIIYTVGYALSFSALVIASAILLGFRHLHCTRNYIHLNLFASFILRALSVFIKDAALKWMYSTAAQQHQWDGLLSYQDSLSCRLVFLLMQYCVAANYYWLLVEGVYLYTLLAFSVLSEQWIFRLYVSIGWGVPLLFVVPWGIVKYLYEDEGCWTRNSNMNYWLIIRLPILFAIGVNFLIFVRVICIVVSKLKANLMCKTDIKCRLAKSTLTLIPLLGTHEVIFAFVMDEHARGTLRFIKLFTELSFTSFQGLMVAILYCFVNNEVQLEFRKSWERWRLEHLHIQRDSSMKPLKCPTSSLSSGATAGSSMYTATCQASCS

Extendin-4 (peptide)
EC 50 (nM), cAMP Hunter bioassay on CHO-K1 cells overexpressing human GLP1R: 0.46 nM
